Laboratory results published in IntAct's records for PubMed 31147388.

B1: Protein pid-1 (Caenorhabditis elegans), Q19541 (parent)
chain: MSAKREFSHITLASTPFKKRIDQNSLKTDSDIEKDTNIAHKCAERFNYNTNLHRKVTLSDRFELAALGYEMKAKPRTIIEKHNDCDEFHFIYRKEKKNDYGTGSPLSAGLSLSNPLPAGRGFLSPAIQNTSNQFTFSGSPRITPQKHTPVSANHKPARSIFDDIPSNIA
partner: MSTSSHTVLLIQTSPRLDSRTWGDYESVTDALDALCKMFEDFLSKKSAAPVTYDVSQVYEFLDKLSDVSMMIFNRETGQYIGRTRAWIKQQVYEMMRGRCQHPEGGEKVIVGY
B2: Protein tost-1 (Caenorhabditis elegans), Q18490 (parent)
chain: MTTAIQYQVIPLADREHSNKVASILENKYKTATNKRITLNERFGVLEKGYTIQATEPETVKNDSDVFFVVHDRNLNSKKEFVENYLAKNPIVNSPEKVFEEEDKENAPTKKAVLKPSSTDEKKLTSSDIYIQEITRSILQSV
partner: B1 partner

Variants of: B1
Settings: with erh2_caeel erh-2, Q20057

effect of a mutation on the interaction	Variant
decreasing interaction strength	MSAKREFSHITLASTPFKKRIDQNSLKTDSDIEKDTNIAHKCAERFNYNTNLHRKVTLSDCFELAALGYEMKAKPRTIIEKHNDCDEFHFIYRKEKKNDYGTGSPLSAGLSLSNPLPAGRGFLSPAIQNTSNQFTFSGSPRITPQKHTPVSANHKPARSIFDDIPSNIA [R61C]

Variants of: B1
Settings: with erh2_caeel erh-2, Q20057
Remark: another data set of the same source

effect of a mutation on the interaction	Variant
disrupting interaction strength	MSAKREFSHITLASTPFKKRIDQNSLKTDSDIEKDTNIAHKCAERFNYNTNLHRKVTLSDCFELAALGYEMKAKPRTIIEKHNDCDEFHFIYRKEKKNDYGTGSPLSAGLSLSNPLPAGRGFLSPAIQNTSNQFTFSGSPRITPQKHTPVSANHKPARSIFDDIPSNIA [R61C]

Variants of: B2
Settings: with erh2_caeel erh-2, Q20057

effect of a mutation on the interaction	Variant
disrupting interaction strength	MTTAIQYQVIPLADREHSNKVASILENKYKTATNKRITLNECFGVLEKGYTIQATEPETVKNDSDVFFVVHDRNLNSKKEFVENYLAKNPIVNSPEKVFEEEDKENAPTKKAVLKPSSTDEKKLTSSDIYIQEITRSILQSV [R42C]
